Data as given in paper PMC3459974.

Biological target: thioredoxin fused-human artemin protein (Trx-ARTN) (human) (UniProt Q5T4W7)
Experiment: SEC; Superdex-200 10/300 column; dimeric Trx-ARTN fractions eluted from the CM-sepharose column, from both refolding methods; calibration with protein standards

stoichiometry N: 2
Substance: thioredoxin fused-human artemin protein (Trx-ARTN) (from UniProt Q5T4W7 40-220) (natural protein)
